# Assay results taken from US9399667B2, “Peptides derived from cytotoxicity receptor natural killer protein 44 NKP44” (03;b. G. NEGEV TECHNOLOGIES AND APPLICATIONS LTD., AT …, priority 2012, dated 2016).
# Columns and labels:
# human cancer cells = test: Direct binding of biotin-conjugated NKp44-derived peptides to human cancer cells (flow cytometry); conditions: biotin-conjugated peptide 10 μg/well; number in brackets is an undefined grade
# NKp44-Ig = biological target: T1, NKp44-Ig (Homo sapiens, UniProt O95944); test: Effect of peptides on NKp44-Ig binding to tumor cells (flow cytometry); conditions: for Effect on NKp44-Ig binding to tumor cells: 2 μg/well NKp44-Ig, 10 μg/well peptide, 1.5 hr, number in brackets is an undefined grade
# T1 construct: fusion proteins containing the extracellular domains NKp30, NKp44 or NKp46 fused to the Fc portion of human IgG1
# T1 sequence (O95944 22-192 limits assumed): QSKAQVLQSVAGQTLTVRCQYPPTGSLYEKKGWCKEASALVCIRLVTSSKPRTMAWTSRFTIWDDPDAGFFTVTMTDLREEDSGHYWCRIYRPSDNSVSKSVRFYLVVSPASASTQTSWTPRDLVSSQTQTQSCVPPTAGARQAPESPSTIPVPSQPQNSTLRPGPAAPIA
# Procedure: (§1) Binding of rNK receptors and binding inhibition assays were performed as follows: 1×10^5 target cells were incubated with 2 μg of the NK receptor-Ig and 5 or 10 μg of the peptides in staining solution consisting of 0.5% (w/v) BSA and 0.05% sodium azide in PBS at 4° C. for 1.5 hrs. Then, cells were washed and stained with APC-conjugated anti-human IgG. Dead cells were detected with propidium iodide (PI). Percentage of inhibition was calculated as the percent of the cell population showing a reduced staining by the NK receptor-Ig in the presence of peptides as compared to reference positive staining by the NK receptor-Ig without peptides. […] Flow cytometry was performed using a FACSCanto II or FACScalibur (BD Bioscience) and results were analyzed using Diva 6.1.2 or CellQuest 3.3, respectively.
# Target cells were incubated for 1.5 hr with 2 μg/well NKp44-Ig and 10 μg/well of each peptide. NKp44-Ig binding intensity was determined by flow cytometry, using fluorescent 2Ab (goat anti-mouse mAb).
# (§2) Target cells were stained with 2 μg/well of NK receptor-Igs in the presence of 10 μg/well of SEQ ID NO: 4, 5, 55 (15mer-shared core sequence between SEQ ID NO:4 and 5), or SEQ ID NO: 1. The NK receptor-Ig staining intensities were determined by flow cytometry, using fluorescent APC-conjugated F(ab′)2 goat anti-human IgG.
# [1] = test system: human cancer cells, MIN6 murine beta cell line and primary mouse beta cells; test: Direct binding of biotin-conjugated NKp46-derived peptides to target cells (flow cytometry, fluorescent Streptavidin); conditions: biotin-conjugated peptide 10 μg/well, number in brackets is an undefined grade
# NKp46D2-Ig = biological target: T2, NKp46D2-Ig (Homo sapiens, UniProt O76036); test: Effect of peptides on NKp46D2-Ig binding to target cells (flow cytometry); conditions: for Effect on NKp46D2L binding to cells: 1.5 hr, compared to staining without peptide or with non-affecting peptides, number in brackets is an undefined grade
# T2 construct: made in house
# T2 sequence (O76036 with tags, fused parts or gaps isoform O76036-6): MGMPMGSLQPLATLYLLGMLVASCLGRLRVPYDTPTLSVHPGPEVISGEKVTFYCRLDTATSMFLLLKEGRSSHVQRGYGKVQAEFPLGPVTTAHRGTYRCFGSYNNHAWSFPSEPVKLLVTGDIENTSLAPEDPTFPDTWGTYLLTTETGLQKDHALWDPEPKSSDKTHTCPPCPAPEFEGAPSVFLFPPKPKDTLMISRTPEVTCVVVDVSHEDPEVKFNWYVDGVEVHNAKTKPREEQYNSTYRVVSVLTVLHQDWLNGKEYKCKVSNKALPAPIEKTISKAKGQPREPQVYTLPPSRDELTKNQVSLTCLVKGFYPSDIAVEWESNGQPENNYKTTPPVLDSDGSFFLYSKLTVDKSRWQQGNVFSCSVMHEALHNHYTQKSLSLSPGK
# Procedure: as §1
# (§3) Target cells were incubated for 1.5 hr with 2 μg/well NKp46D2-Ig and 10 μg/well of each peptide. NKp46D2-Ig binding intensity was determined by flow cytometry, using fluorescent 2Ab (goat anti-mouse monoclonal antibody).
# as §2
# LIR1-Ig = biological target: T3, LIR1-Ig (Homo sapiens, UniProt Q8NHL6); test: Effect of peptides on LIR1-Ig binding to target cells (flow cytometry); conditions: for Binding of LIR1-Ig in the presence of peptide: Example 1, FIGS. 3 and 5, HeLa cells
# T3 construct: made in house
# T3 sequence (Q8NHL6 24-461 limits assumed): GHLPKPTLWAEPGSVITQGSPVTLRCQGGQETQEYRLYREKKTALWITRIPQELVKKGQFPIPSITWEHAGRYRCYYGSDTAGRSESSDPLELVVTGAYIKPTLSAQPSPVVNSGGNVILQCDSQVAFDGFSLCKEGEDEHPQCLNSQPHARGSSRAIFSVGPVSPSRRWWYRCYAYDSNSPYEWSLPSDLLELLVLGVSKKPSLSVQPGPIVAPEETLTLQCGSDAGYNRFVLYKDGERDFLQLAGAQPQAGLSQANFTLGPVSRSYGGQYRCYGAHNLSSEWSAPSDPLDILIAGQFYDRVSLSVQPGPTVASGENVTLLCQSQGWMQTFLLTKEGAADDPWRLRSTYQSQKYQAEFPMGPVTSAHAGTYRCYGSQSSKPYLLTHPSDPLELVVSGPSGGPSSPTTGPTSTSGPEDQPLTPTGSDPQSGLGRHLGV
# Procedure: as §1, with “target cells were incubated with 2 μg of the NK receptor-Ig and 5 or 10 μg of the peptides in staining solution consisting” left out
# as §3, §2
# NKp30-Ig = biological target: T4, NKp30-Ig (Homo sapiens, UniProt O14931); test: Effect of peptide on NKp30-Ig binding to HeLa cells (flow cytometry); conditions: pep4 0.625 to 10 μg/well, FIG. 9D
# T4 construct: fusion proteins containing the extracellular domains NKp30, NKp44 or NKp46 fused to the Fc portion of human IgG1; made in house
# T4 sequence (O14931 19-135 limits assumed): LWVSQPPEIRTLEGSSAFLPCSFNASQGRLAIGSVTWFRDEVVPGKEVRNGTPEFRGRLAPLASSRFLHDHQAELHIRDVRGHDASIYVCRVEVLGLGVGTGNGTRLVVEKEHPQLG
# Procedure: as §1, with “target cells were incubated with 2 μg of the NK receptor-Ig and 5 or 10 μg of the peptides in staining solution consisting” left out
# as §2
# [2] = test system: NKp46-expressing NK cells; test: Flow cytometry cytotoxicity assay: lysis of target tumor cells by human primary NK cells; assay type: cell-based
# Procedure: (§4) NK cells were isolated from the peripheral blood of healthy donors using a human NK cell isolation kit (Miltenyi Biotec). NK purity was greater than 90% (CD3^−CD56^±). Purified NK cells were cultured in CellGro SCGM serum-free medium (CellGenix, 2001) supplemented with 10% heat inactivated human plasma from healthy donors, 1 mM sodium pyruvate, 2 mM L-glutamine, MEM non-essential amino acids, 1% penicillin/streptomycin, 10 mM HEPES (Gibco™) and 300 IU/ml of human IL-2 (Biological Industries Israel Ltd).
# (§5) The flow cytometry cytotoxicity assay was previously described (Flodstrom et al. Diabetes 48, 706-713 (1999)). Effector human primary NK cells were labeled with CellTrace CFSE (Invitrogen, C3554). Analysis of 7-AAD for negative-CFSE target tumor cells was performed using a FACSCantoII and data were analyzed by Diva 6.1.2. For blocking experiments, NK cells were pre-incubated with mouse polyclonal anti-NKp46 serum or with naive serum 30 min at 4° C. before being combined with target cells. The NK degranulation assay was performed as previously described (Raulet, D. H. Nat Rev Immunol 3, 781-790 (2003); Biassoni, R. et al. Eur J Immunol 29, 1014-1020 (1999)).
# Next, the influence of the peptide of SEQ ID NO: 4 on NK cells function was investigated. Target HeLa cells were plated and pep4 or mock peptide was added just before adding an effector human primary NK cell line. […] To verify that the peptide of SEQ ID NO: 4 inhibits NKp46-mediated lysis, anti-NKp46 serum was used to block the receptor on human primary NK cells.
# human primary NK cells = test: CD107a (LAMP-1) degranulation assay of human primary NK cells; assay type: cell-based; conditions: co-cultured with HeLa or 721.221 target cells for four hours at different E:T ratios; FIG. 10C, p<0.05
# Procedure: as §4
# as §5, with “1014-1020 (1999)). […]” for “1014-1020 (1999)).”
# NKp46-Ig = biological target: T5, NKp46-Ig (Homo sapiens, UniProt O76036); test: Effect of peptides on NKp46-Ig binding to tumor cells (flow cytometry); conditions: Example 3, FIG. 9B/9C; 10 μg/well peptide; to a lesser extent than NKp46D2-Ig binding
# T5 construct: fusion proteins containing the extracellular domains NKp30, NKp44 or NKp46 fused to the Fc portion of human IgG1; made in house
# T5 sequence (O76036 22-258 limits assumed): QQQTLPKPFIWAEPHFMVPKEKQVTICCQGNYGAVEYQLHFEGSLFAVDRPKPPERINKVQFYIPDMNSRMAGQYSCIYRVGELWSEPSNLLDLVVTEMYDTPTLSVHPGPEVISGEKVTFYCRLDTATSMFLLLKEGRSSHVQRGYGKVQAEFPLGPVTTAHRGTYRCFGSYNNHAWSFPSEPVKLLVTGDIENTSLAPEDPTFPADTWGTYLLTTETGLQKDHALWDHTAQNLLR
# Procedure: as §1, §2
# [3] = 2 μg/well NKp46D2-Ig, 10 μg/well peptide
# [4] = HeLa cells, pep4 0.625 to 10 μg/well, FIG. 9D
substance,measurement,setting,value
EASAL VCIRL VTSSK PRTVA (EASALVCIRLVTSSKPRTVA) [SEQ ID NO: 32],Direct binding to tumor cells,human cancer cells,Yes (1)
same,Effect on NKp44-Ig binding to tumor cells,NKp44-Ig,Enhance (1)
KGWCK EASAL VCIRL VTSSK (KGWCKEASALVCIRLVTSSK) [SEQ ID NO: 31],Direct binding to tumor cells,human cancer cells,Yes (1)
same,Effect on NKp44-Ig binding to tumor cells,NKp44-Ig,Enhance (1)
LDTAT SMFLL LKEGR SSHVQ (LDTATSMFLLLKEGRSSHVQ) [SEQ ID NO: 6],Direct binding to cells,[1],No
same,Effect on NKp46D2L binding to cells,NKp46D2-Ig; [3],inhibiting binding
same,Effect on NKp46D2L binding to cells,"NKp46D2-Ig; 2 μg/well NKp46D2-Ig, 10 μg/well peptide, listed as 6",Suppress (1)
same,Binding of LIR1-Ig in the presence of peptide,LIR1-Ig,not affected
PLGPV TTAHR GTYRC FGSYN (PLGPVTTAHRGTYRCFGSYN) [SEQ ID NO: 12],Direct binding to cells,[1],direct binding
same,Direct binding to cells,[1]; listed as 12,Yes (3)
same,Effect on NKp46D2L binding to cells,NKp46D2-Ig; [3],enhancing NKp46D2-Ig binding
same,Effect on NKp46D2L binding to cells,"NKp46D2-Ig; 2 μg/well NKp46D2-Ig, 10 μg/well peptide, listed as 12",Enhance (3)
same,Binding of LIR1-Ig in the presence of peptide,LIR1-Ig,not affected
SGEKV TFYCR LDTAT SMFLL (SGEKVTFYCRLDTATSMFLL) [SEQ ID NO: 4],Direct binding to cells,[1],No
same,Binding inhibition of NKp30-Ig,NKp30-Ig,did not induce significant binding inhibition
same,Effect on NKp46D2L binding to cells,NKp46D2-Ig; [3],inhibiting binding
same,Effect on NKp46D2L binding to cells,"NKp46D2-Ig; 2 μg/well NKp46D2-Ig, 10 μg/well peptide, listed as 4",Suppress (2)
same,Binding of NKp46D2-Ig to HeLa cells upon co-incubation with peptide,"NKp46D2-Ig; Example 3, FIG. 9A, 2 μg/well NKp46D2-Ig, 10 μg/well peptide",inhibited binding
same,Inhibition of rNKp46 binding across tumor cell lines,"NKp46D2-Ig; HeLa, PC-3, HEK293T, 721.221, CHO-K1 and MIN-6 cells, FIG. 9C",evident for numerous tumor cell lines
same,Lysis of target 721.221 and CHO-K1 cells by NK cells,[2]; 721.221 and CHO-K1 target cells,inhibition of lysis
same,Lysis of target cells by NKp46-expressing NK cells,[2]; Example 1,inhibit lysis
same,Blocking effect of anti-NKp46 serum on lysis when the peptide was present,"[2]; anti-NKp46 serum compared to control serum, FIG. 10B",no blocking effect was observed
same,Lysis of target cells in the presence of control serum,"[2]; compared to control peptide, 15:1 E:T, FIG. 10B, p<0.01",inhibited lysis
same,Lysis of target HeLa cells by human primary NK cell line,"[2]; compared to mock1, 4 hr, FIG. 10A, p<0.01",significantly suppressed
same,Percentage of CD107a+ NK cells,human primary NK cells,significantly reduced
same,Binding of LIR1-Ig in the presence of peptide,LIR1-Ig,not affected
same,Binding inhibition of LIR1-Ig,LIR1-Ig; [4],did not induce significant binding inhibition
same,Binding inhibition of NKp44-Ig,NKp44-Ig; [4],did not induce significant binding inhibition
same,NKp46-Ig binding to tumor cells in the presence of peptide,NKp46-Ig,inhibited
SMFLL LKEGR SSHVQ RGYGK (SMFLLLKEGRSSHVQRGYGK) [SEQ ID NO: 7],Direct binding to cells,[1],direct binding
same,Direct binding to cells,[1]; listed as 7,Yes (1)
same,Effect on NKp46D2L binding to cells,NKp46D2-Ig; [3],enhancing NKp46D2-Ig binding
same,Effect on NKp46D2L binding to cells,"NKp46D2-Ig; 2 μg/well NKp46D2-Ig, 10 μg/well peptide, listed as 7",Enhance (2)
same,Binding of LIR1-Ig in the presence of peptide,LIR1-Ig,not affected
TFYCR LDTAT SMFLL (TFYCRLDTATSMFLL) [SEQ ID NO: 55],NKp46-Ig binding to tumor cells in the presence of peptide,NKp46-Ig,also inhibited
TFYCR LDTAT SMFLL LKEGR (TFYCRLDTATSMFLLLKEGR) [SEQ ID NO: 5],Direct binding to cells,[1],No
same,Effect on NKp46D2L binding to cells,NKp46D2-Ig; [3],inhibiting binding
same,Effect on NKp46D2L binding to cells,"NKp46D2-Ig; 2 μg/well NKp46D2-Ig, 10 μg/well peptide, listed as 5",Suppress (2)
same,Binding of LIR1-Ig in the presence of peptide,LIR1-Ig,not affected
same,NKp46-Ig binding to tumor cells in the presence of peptide,NKp46-Ig,inhibited
TTAHR GTYRC FGSYN NHAWS (TTAHRGTYRCFGSYNNHAWS) [SEQ ID NO: 13],Direct binding to cells,[1],direct binding
same,Direct binding to cells,[1]; listed as 13,Yes (2)
same,Effect on NKp46D2L binding to cells,NKp46D2-Ig; [3],enhancing NKp46D2-Ig binding
same,Effect on NKp46D2L binding to cells,"NKp46D2-Ig; 2 μg/well NKp46D2-Ig, 10 μg/well peptide, listed as 13",Enhance (1.5)
same,Binding of LIR1-Ig in the presence of peptide,LIR1-Ig,not affected
VCIRL VTSSK PRIMA WTSRF (VCIRLVTSSKPRTMAWTSRF) [SEQ ID NO: 33],Effect on NKp44-Ig binding to tumor cells,NKp44-Ig,Enhance (1)
VTSSK PRTVA WTSRF TIWDD (VTSSKPRTVAWTSRFTIWDD) [SEQ ID NO: 34],Direct binding to tumor cells,human cancer cells,No
same,Effect on NKp44-Ig binding to tumor cells,NKp44-Ig,inhibiting binding
same,Effect on NKp44-Ig binding to tumor cells,NKp44-Ig; listed as 34,Suppress (1.5)
